Results on six substances are retold here after patent publication US20150344580A1.

The target in assay [1] is human chemokine receptor CCR7 (UniProt P32248). Briefly: flow cytometry, human CCR7 cells (summary table).
A further assay has as its target human CCR7-CHO cells (UniProt P32248). The assay is described as follows: FACS binding to CCR7-CHO cells.
The target in the next assay is CCR7 (JVM-13) (UniProt P32248). Briefly: cell binding; JVM-13 cells.
For another assay, the target named is CCR7 (CCL-AAT) (UniProt P32248). The assay is described as follows: cell binding; CLL-AAT cells.
CCR7 (CCL-AAT), sequence (P32248 25-378): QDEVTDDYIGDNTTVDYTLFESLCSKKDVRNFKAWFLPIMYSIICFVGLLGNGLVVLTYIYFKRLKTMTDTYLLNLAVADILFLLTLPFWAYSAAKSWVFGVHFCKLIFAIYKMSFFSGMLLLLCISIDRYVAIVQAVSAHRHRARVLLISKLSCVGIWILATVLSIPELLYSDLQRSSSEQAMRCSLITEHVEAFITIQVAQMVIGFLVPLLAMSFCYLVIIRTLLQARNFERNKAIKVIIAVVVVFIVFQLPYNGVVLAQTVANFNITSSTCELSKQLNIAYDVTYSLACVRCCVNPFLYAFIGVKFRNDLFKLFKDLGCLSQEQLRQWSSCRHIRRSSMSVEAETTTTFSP
Assay [2] deals with human chemokine receptor CCR7 (UniProt P32248). The assay is described as follows: cell-based or functional assay.
A further assay concerns the target mouse CCR7 (mouse) (UniProt P47774). Briefly: flow cytometry, mouse CCR7 cells (summary table). On the technique in general: In flow cytometry, cells or beads pass a laser one at a time.

pEC50, pKd: −log10 of the molar value.

human chemokine receptor CCR7, sequence (P32248 25-378 limits assumed): as the sequence (P32248 25-378) above
human CCR7-CHO cells, sequence (P32248 25-378): as above
mouse CCR7 (mouse), sequence (P47774 25-378): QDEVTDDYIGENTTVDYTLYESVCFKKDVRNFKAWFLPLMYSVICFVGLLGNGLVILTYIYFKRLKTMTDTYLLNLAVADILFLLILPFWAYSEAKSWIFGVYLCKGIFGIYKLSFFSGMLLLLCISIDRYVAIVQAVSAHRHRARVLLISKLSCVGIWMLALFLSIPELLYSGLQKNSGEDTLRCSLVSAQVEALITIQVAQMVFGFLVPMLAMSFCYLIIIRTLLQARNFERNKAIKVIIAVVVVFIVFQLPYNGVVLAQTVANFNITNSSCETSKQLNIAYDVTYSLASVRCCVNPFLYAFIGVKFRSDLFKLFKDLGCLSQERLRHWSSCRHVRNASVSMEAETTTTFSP
CCR7 (JVM-13), sequence (P32248 25-378): as the sequence (P32248 25-378) above

In general, pEC50 refers to the negative decadic logarithm of the EC50, by convention in mol/L. Low readings indicate a high EC50, high ones a low EC50. As to “IgG 3D12 (eBioscience), anti-human CCR7 control (antibody)”, the pEC50 in assay [1] is 8.47.
Turning to IgG 3D12 eBioscience, the pEC50 with human CCR7-CHO cells is 8.49.
The substance IgG 150503 R&D Systems had a pEC50 with human CCR7-CHO cells of 8.23.
One may read the pKd as the Kd on a negative log10 scale, so that one unit is a factor of ten. For MAB197, the pKd is 7.70 in the assay with CCR7 (JVM-13) and 7.57 in the assay with CCR7 (CCL-AAT).
On to “Mouse monoclonal IgG2A anti-human CCR7, clone 150503 (R&D Systems MAB197) (antibody)”, for which, in assay [2], the IC50 of inhibition of Ca-flux induced by 15 nM CCL19, Chem-1 CCR7 human cells was determined as 10 nM and the inhibition of chemotaxis of CLL-AAT cells toward 30 nM CCL19, 500 nM IgG was 60%. The pEC50 in assay [1] is 8.16.
In the assay with mouse CCR7 (mouse), “Rat IgG2A anti-mouse CCR7, clone 4B12 (R&D Systems MAB3477) (antibody)” showed a pEC50 of 7.13.
